One substance from US20070207967 can be followed below.

Data set [1] concerns PPC peptide, soluble recombinant 18-mer ADGACGYGRFSPPCGAAG
The target in data set [2] is recombinant soluble human uPAR (suPAR) (UniProt Q03405).
recombinant soluble human uPAR (suPAR), sequence (Q03405 whole entry, looked up, tested part not stated): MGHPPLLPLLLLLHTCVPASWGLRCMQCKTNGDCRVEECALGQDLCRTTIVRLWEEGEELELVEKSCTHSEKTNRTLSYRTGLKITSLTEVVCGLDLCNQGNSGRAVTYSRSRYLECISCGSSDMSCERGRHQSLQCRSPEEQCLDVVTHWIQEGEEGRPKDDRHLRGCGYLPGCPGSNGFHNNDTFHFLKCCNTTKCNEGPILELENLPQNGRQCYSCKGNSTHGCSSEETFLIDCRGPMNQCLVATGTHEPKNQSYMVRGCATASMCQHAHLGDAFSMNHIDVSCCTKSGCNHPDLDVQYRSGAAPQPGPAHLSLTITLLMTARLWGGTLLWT

trypsin-activated MMP-9, sequence (chain, as listed by the source): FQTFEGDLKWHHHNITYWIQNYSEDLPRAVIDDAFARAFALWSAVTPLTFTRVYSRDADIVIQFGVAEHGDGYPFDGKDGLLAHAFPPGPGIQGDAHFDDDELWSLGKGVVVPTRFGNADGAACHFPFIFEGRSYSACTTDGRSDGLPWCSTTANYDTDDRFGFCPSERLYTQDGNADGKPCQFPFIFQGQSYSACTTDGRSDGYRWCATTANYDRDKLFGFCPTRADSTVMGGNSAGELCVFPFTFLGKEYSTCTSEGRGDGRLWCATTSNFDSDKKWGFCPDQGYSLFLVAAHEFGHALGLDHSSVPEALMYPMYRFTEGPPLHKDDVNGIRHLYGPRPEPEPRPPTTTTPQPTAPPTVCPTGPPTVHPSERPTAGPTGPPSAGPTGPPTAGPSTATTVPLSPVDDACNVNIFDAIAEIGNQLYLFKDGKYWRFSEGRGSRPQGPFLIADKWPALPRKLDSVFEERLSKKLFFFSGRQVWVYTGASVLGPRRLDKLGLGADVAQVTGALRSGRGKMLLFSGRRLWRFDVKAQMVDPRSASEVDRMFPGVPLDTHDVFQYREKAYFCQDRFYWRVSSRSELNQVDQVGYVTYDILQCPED

As to trypsin-activated MMP-9, the “gelatin degradation assay (enzymatic activity, biotinylated gelatin substrate)” value in data set [1] was “PPC inhibited both MMP-9 and MMP-2 activity”. Moreover, in data set [2], the “cleavage of soluble uPAR in vitro (western blot)” value is listed as “MMP-9 cleaved the domain 1 (D1) from uPAR similarly as chymotrypsin does”.
